Test results published in the supplement of paper PMC9732359.
± gives the uncertainty stated by the source.

Assay: protein stability index of a GFP-peptide fusion (yeast GPS) (PSI 1-4); higher = more stable; sorted into four equal gates, so the index is relative within each strain
Procedure, shortened: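 Sequencing reads from sorted gates were used to score each peptide. The library consisted of tiled 17-residue yeast protein peptides fused downstream of GFP on a Cherry-expressing plasmid, pooled and carried in yeast. Mid-log cultures in leucine-free medium were split into four equal gates by GFP/Cherry ratio, and each gate's plasmids were PCR-amplified and Illumina-sequenced. The protein stability index adds up, over all gates, the read frequency multiplied by the gate number.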

## FWSLHSSTYYNLDYLFE [NUT1]
doa10∆
  protein stability index: 2.44 ± 0.053
pdr5∆
  protein stability index: 2.05 ± 0.037
san1∆
  protein stability index: 2 ± 0.063
ubr1∆
  protein stability index: 1.95 ± 0.029

## LQKKFVTKQSELNSSED [SMC1]
pdr5∆
  protein stability index: 3.52 ± 0.26

## GRIPNVPVIVKARFVSK [RPL28]
doa10∆
  protein stability index: 2.32 ± 0.025
pdr5∆
  protein stability index: 2.575 ± 0.024
san1∆
  protein stability index: 2.599 ± 0.025
ubr1∆
  protein stability index: 2.648 ± 0.021

## NVDRLYKLNVRSNDPQS [NUT2]
doa10∆
  protein stability index: 3.22 ± 0.11
pdr5∆
  protein stability index: 3.2 ± 0.084
san1∆
  protein stability index: 3.27 ± 0.065
ubr1∆
  protein stability index: 3.39 ± 0.089

## LQRHSGISSTLVSANND [YLR018C/POM34]
doa10∆
  protein stability index: 2.7 ± 0.052
pdr5∆
  protein stability index: 2.87 ± 0.064
san1∆
  protein stability index: 2.96 ± 0.062
ubr1∆
  protein stability index: 2.94 ± 0.07

## AALGMGLCMLGTGKPEA [RPN2]
doa10∆
  protein stability index: 3.46 ± 0.13
pdr5∆
  protein stability index: 3.32 ± 0.094
san1∆
  protein stability index: 3.44 ± 0.066
ubr1∆
  protein stability index: 3.36 ± 0.088

## RLFNNVKIHSQESLLSR [SRP72]
doa10∆
  protein stability index: 2.61 ± 0.076
pdr5∆
  protein stability index: 2 ± 0.06
san1∆
  protein stability index: 2.44 ± 0.085
ubr1∆
  protein stability index: 2.18 ± 0.044

## TDLESLSSGESNEIKVT [SIR4]
doa10∆
  protein stability index: 2.99 ± 0.13
pdr5∆
  protein stability index: 2.93 ± 0.11
san1∆
  protein stability index: 2.69 ± 0.1
ubr1∆
  protein stability index: 2.46 ± 0.071

## TATIINNESSDDMDIDE [PCI8]
doa10∆
  protein stability index: 3.1 ± 0.097
pdr5∆
  protein stability index: 3.17 ± 0.07
san1∆
  protein stability index: 3.02 ± 0.095
ubr1∆
  protein stability index: 3.31 ± 0.056

## VSYKDYSIFLENENILI [SMC1]
doa10∆
  protein stability index: 2.62 ± 0.13
pdr5∆
  protein stability index: 2.81 ± 0.1
ubr1∆
  protein stability index: 2.59 ± 0.086

## KEIMDKIITSRPLQKIM [SIN4]
doa10∆
  protein stability index: 2.13 ± 0.12
pdr5∆
  protein stability index: 1.23 ± 0.068
san1∆
  protein stability index: 1.45 ± 0.18
ubr1∆
  protein stability index: 1.06 ± 0.065

## QTHPDTGISQKSMSILN [HTB1]
doa10∆
  protein stability index: 3.04 ± 0.056
pdr5∆
  protein stability index: 3.01 ± 0.069
san1∆
  protein stability index: 3.11 ± 0.06
ubr1∆
  protein stability index: 2.72 ± 0.068

## SDMQHIERLLKDLVTEN [PRE4]
doa10∆
  protein stability index: 1.63 ± 0.14
pdr5∆
  protein stability index: 2.61 ± 0.13
san1∆
  protein stability index: 2.31 ± 0.17
ubr1∆
  protein stability index: 2.97 ± 0.15

## TISECNLYDDVKCWSKF [MED1]
doa10∆
  protein stability index: 2.27 ± 0.093
pdr5∆
  protein stability index: 2.34 ± 0.2
san1∆
  protein stability index: 3.38 ± 0.071
ubr1∆
  protein stability index: 3.14 ± 0.12

## GVMLWKEFDETIFNLPK [FAS1]
doa10∆
  protein stability index: 1.75 ± 0.073
pdr5∆
  protein stability index: 1.56 ± 0.12
san1∆
  protein stability index: 1.15 ± 0.21
ubr1∆
  protein stability index: 2.81 ± 0.2

## KARFVSKLAEEKIRAAG [RPL28]
doa10∆
  protein stability index: 2.508 ± 0.025
pdr5∆
  protein stability index: 2.66 ± 0.027
san1∆
  protein stability index: 2.6 ± 0.028
ubr1∆
  protein stability index: 2.793 ± 0.024

## TSINHKIYRVGKGDDEA [RPL3]
doa10∆
  protein stability index: 3.44 ± 0.071
pdr5∆
  protein stability index: 3.61 ± 0.1
san1∆
  protein stability index: 3.67 ± 0.044
ubr1∆
  protein stability index: 3.28 ± 0.11

## DSIPLRITNSFYSTNSQ [RPN9]
doa10∆
  protein stability index: 2.56 ± 0.14
pdr5∆
  protein stability index: 2.65 ± 0.13
san1∆
  protein stability index: 2.58 ± 0.18
ubr1∆
  protein stability index: 2.9 ± 0.21

## INHEDGFIETTELLNIY [RPN3]
doa10∆
  protein stability index: 2.97 ± 0.079
pdr5∆
  protein stability index: 2.93 ± 0.1
san1∆
  protein stability index: 3.09 ± 0.072
ubr1∆
  protein stability index: 3.19 ± 0.066

## TGLVSIRGKILTGTVVS [RPS11A]
doa10∆
  protein stability index: 2.45 ± 0.052
pdr5∆
  protein stability index: 2.75 ± 0.053
san1∆
  protein stability index: 2.58 ± 0.053
ubr1∆
  protein stability index: 2.89 ± 0.038

## TTLNIKVEKRVLGLTIL [SMB1]
doa10∆
  protein stability index: 1.86 ± 0.075
pdr5∆
  protein stability index: 2.79 ± 0.093
san1∆
  protein stability index: 2.39 ± 0.14
ubr1∆
  protein stability index: 2.27 ± 0.08

## KNLKHIDVTFTKVNNQL [RPL9A]
doa10∆
  protein stability index: 2.79 ± 0.057
pdr5∆
  protein stability index: 2.58 ± 0.053
san1∆
  protein stability index: 2.52 ± 0.07
ubr1∆
  protein stability index: 2.62 ± 0.045

## TVDGRLYQLFKTCIQGI [YJL039C/NUP192]
doa10∆
  protein stability index: 2.86 ± 0.16
pdr5∆
  protein stability index: 2.98 ± 0.23
san1∆
  protein stability index: 3.03 ± 0.11

## YKYGYDMPCDVLAKRMA [SCL1]
doa10∆
  protein stability index: 2.51 ± 0.067
pdr5∆
  protein stability index: 2.25 ± 0.049
san1∆
  protein stability index: 2.61 ± 0.073
ubr1∆
  protein stability index: 2.29 ± 0.058

## HAADSQNNKPSFVFGQA [YLR335W/NUP2]
doa10∆
  protein stability index: 2.91 ± 0.11
pdr5∆
  protein stability index: 2.95 ± 0.092
san1∆
  protein stability index: 2.58 ± 0.057
ubr1∆
  protein stability index: 3.15 ± 0.093

## KPNIILDEDDTNDGIER [RPC31]
doa10∆
  protein stability index: 3.42 ± 0.076
pdr5∆
  protein stability index: 3.27 ± 0.085
san1∆
  protein stability index: 3.31 ± 0.051
ubr1∆
  protein stability index: 3.27 ± 0.043

## NLQQQQQQQIQVPLQQT [YGR119C/NUP57]
doa10∆
  protein stability index: 2.56 ± 0.13
pdr5∆
  protein stability index: 2.76 ± 0.078
san1∆
  protein stability index: 2.16 ± 0.18
ubr1∆
  protein stability index: 3.03 ± 0.11

## GASNGDDSNGGNGEGLG [BRN1]
doa10∆
  protein stability index: 3.42 ± 0.14
pdr5∆
  protein stability index: 2.83 ± 0.23
san1∆
  protein stability index: 3.68 ± 0.16
ubr1∆
  protein stability index: 3.19 ± 0.084

## QLKRWYWQFNGVIALGQ [RMP1]
ubr1∆
  protein stability index: 1.41 ± 0.22

## LERVKRIMEKSVILSVI [YML031W/NDC1]
doa10∆
  protein stability index: 2.71 ± 0.086
pdr5∆
  protein stability index: 2.17 ± 0.094
san1∆
  protein stability index: 1.98 ± 0.096
ubr1∆
  protein stability index: 1.61 ± 0.049

## LFLNTGCLSVLYQSKGR [SRP68]
doa10∆
  protein stability index: 1.66 ± 0.054
pdr5∆
  protein stability index: 1.55 ± 0.069
san1∆
  protein stability index: 1.48 ± 0.12
ubr1∆
  protein stability index: 1.25 ± 0.059

## TKMDGHARGGGAISAVA [SRP54]
san1∆
  protein stability index: 3.51 ± 0.14
ubr1∆
  protein stability index: 3.62 ± 0.26

## YQTCKNSEYLKRRVTNL [SMC2]
doa10∆
  protein stability index: 2.37 ± 0.071
pdr5∆
  protein stability index: 2.09 ± 0.079
san1∆
  protein stability index: 2.44 ± 0.078
ubr1∆
  protein stability index: 2.45 ± 0.073

## LLNAADRDALSGWGAVV [PUP3]
doa10∆
  protein stability index: 3.17 ± 0.12
pdr5∆
  protein stability index: 3.2 ± 0.099
san1∆
  protein stability index: 3.03 ± 0.081
ubr1∆
  protein stability index: 3.09 ± 0.099

## SLNPALQEKISTELNNK [SWI1]
doa10∆
  protein stability index: 2.8 ± 0.11
pdr5∆
  protein stability index: 3.05 ± 0.097
san1∆
  protein stability index: 3.29 ± 0.069
ubr1∆
  protein stability index: 3.27 ± 0.083

## LNSMPNNVNEYSYTTIV [YJL039C/NUP192]
doa10∆
  protein stability index: 2.69 ± 0.085
pdr5∆
  protein stability index: 2.95 ± 0.092
san1∆
  protein stability index: 2.75 ± 0.075
ubr1∆
  protein stability index: 2.6 ± 0.058

## VSSAKFSGKYLKYLTKK [RPL22B]
doa10∆
  protein stability index: 2.82 ± 0.25
pdr5∆
  protein stability index: 2.52 ± 0.2
san1∆
  protein stability index: 2.59 ± 0.12
ubr1∆
  protein stability index: 2.66 ± 0.18

## FNNEAPPQTRKFQPPPG [SMB1]
doa10∆
  protein stability index: 2.86 ± 0.1
pdr5∆
  protein stability index: 3.11 ± 0.1
san1∆
  protein stability index: 3.01 ± 0.075
ubr1∆
  protein stability index: 3.13 ± 0.085

## FNAIDLARHLPAELDLR [RPC82]
doa10∆
  protein stability index: 2.46 ± 0.09
pdr5∆
  protein stability index: 2.56 ± 0.076
san1∆
  protein stability index: 2.29 ± 0.083
ubr1∆
  protein stability index: 2.99 ± 0.11

## SYAGISTDKLVQCHGSF [SIR2]
doa10∆
  protein stability index: 2.57 ± 0.12
pdr5∆
  protein stability index: 2.76 ± 0.11
san1∆
  protein stability index: 2.78 ± 0.13
ubr1∆
  protein stability index: 2.98 ± 0.092

## LFKPLNKTLTLDLKECY [ARP7]
doa10∆
  protein stability index: 2.4 ± 0.067
pdr5∆
  protein stability index: 2.14 ± 0.068
san1∆
  protein stability index: 1.89 ± 0.15
ubr1∆
  protein stability index: 2.27 ± 0.12

## KPETLSIGKNPFNKPNI [SWI3]
doa10∆
  protein stability index: 2.85 ± 0.044
pdr5∆
  protein stability index: 2.9 ± 0.041
san1∆
  protein stability index: 2.75 ± 0.033
ubr1∆
  protein stability index: 2.99 ± 0.03

## SQVYAIRQAIAKGLVAY [RPS16A]
doa10∆
  protein stability index: 2.22 ± 0.069
pdr5∆
  protein stability index: 2.35 ± 0.071
san1∆
  protein stability index: 2.27 ± 0.1
ubr1∆
  protein stability index: 2.42 ± 0.055

## HFGHCFNITDNGVRALF [GRR1]
doa10∆
  protein stability index: 2.07 ± 0.18
pdr5∆
  protein stability index: 2.65 ± 0.13
ubr1∆
  protein stability index: 2.64 ± 0.1

## SGGLFGNQQQQLQQQPQ [YGL172W/NUP49]
doa10∆
  protein stability index: 2.88 ± 0.13
pdr5∆
  protein stability index: 2.61 ± 0.15
san1∆
  protein stability index: 2.89 ± 0.093
ubr1∆
  protein stability index: 3 ± 0.12

## ETLGLKYLGLKPGSIDA [FAS1]
doa10∆
  protein stability index: 3.24 ± 0.13
pdr5∆
  protein stability index: 3.24 ± 0.097
san1∆
  protein stability index: 3.03 ± 0.076
ubr1∆
  protein stability index: 3.22 ± 0.095

## ISEFDSFTDILKSAIRD [RPN12]
doa10∆
  protein stability index: 2.73 ± 0.12
pdr5∆
  protein stability index: 3.15 ± 0.17
san1∆
  protein stability index: 3.04 ± 0.11
ubr1∆
  protein stability index: 2.42 ± 0.13

## TSDGALSVMCGCGTVKR [RPR2]
doa10∆
  protein stability index: 2.43 ± 0.13
pdr5∆
  protein stability index: 2.67 ± 0.1
san1∆
  protein stability index: 1.93 ± 0.14
ubr1∆
  protein stability index: 1.78 ± 0.13

## VSSSSRHHRKTEKEEDA [ISW2]
doa10∆
  protein stability index: 2.66 ± 0.064
pdr5∆
  protein stability index: 2.81 ± 0.057
san1∆
  protein stability index: 2.05 ± 0.058
ubr1∆
  protein stability index: 2.86 ± 0.054

## KAGKITTIEEIFLHSLP [RPS2]
doa10∆
  protein stability index: 2.8 ± 0.11
pdr5∆
  protein stability index: 2.69 ± 0.12
san1∆
  protein stability index: 2.52 ± 0.082
ubr1∆
  protein stability index: 2.94 ± 0.066

## EKEEEAKEESDDDMGFG [RPP2B]
doa10∆
  protein stability index: 3.05 ± 0.2
pdr5∆
  protein stability index: 3.29 ± 0.14
san1∆
  protein stability index: 2.84 ± 0.15
ubr1∆
  protein stability index: 3.43 ± 0.07

## YLIDHIKVEGAVGNLGN [RPL22A]
doa10∆
  protein stability index: 2.9 ± 0.17
pdr5∆
  protein stability index: 3.11 ± 0.16
san1∆
  protein stability index: 2.89 ± 0.092
ubr1∆
  protein stability index: 3.21 ± 0.11

## KIENSVQIGAEIILDFL [CSI1]
doa10∆
  protein stability index: 2.73 ± 0.24
pdr5∆
  protein stability index: 2.83 ± 0.16
san1∆
  protein stability index: 2.38 ± 0.12
ubr1∆
  protein stability index: 2.61 ± 0.11
